Target: human recombinant ICAM-1 (D1-D2-Fc), Alexa Fluor 555 conjugate (human) (UniProt P05362)
Test: FRET or BRET; steady-state, in solution competition screening, 96-well plate; Alexa Fluor 488-LFA-1 (100 nM) mixed with peptide (0.02, 0.2, 2, 20 µM), then incubated with Alexa Fluor 555-D1-D2-Fc (100 nM) for 30 min in the dark; PBS pH 7.4, 1 mM EGTA, 2 mM Mg2+; inhibition efficiency from the FRET efficiency

human recombinant ICAM-1 (D1-D2-Fc), Alexa Fluor 555 conjugate (human), sequence (P05362 28-532): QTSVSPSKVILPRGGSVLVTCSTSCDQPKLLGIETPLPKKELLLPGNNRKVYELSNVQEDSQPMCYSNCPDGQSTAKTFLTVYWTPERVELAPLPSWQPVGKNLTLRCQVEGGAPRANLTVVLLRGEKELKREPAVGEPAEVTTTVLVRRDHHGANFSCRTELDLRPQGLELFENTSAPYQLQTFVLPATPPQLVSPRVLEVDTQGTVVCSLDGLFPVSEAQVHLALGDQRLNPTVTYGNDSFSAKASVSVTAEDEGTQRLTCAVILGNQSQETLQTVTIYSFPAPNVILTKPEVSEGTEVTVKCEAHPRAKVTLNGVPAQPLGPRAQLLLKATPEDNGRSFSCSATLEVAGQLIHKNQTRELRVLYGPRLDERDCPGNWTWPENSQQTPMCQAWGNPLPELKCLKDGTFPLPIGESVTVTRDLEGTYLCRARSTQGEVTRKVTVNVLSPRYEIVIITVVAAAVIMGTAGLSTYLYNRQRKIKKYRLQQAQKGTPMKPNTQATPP

Row | inhibition efficiency of the LFA-1/D1-D2-Fc interaction at 0.02 µM peptide [%] | inhibition efficiency of the LFA-1/D1-D2-Fc interaction at 0.2 µM peptide [%] | inhibition efficiency of the LFA-1/D1-D2-Fc interaction at 2 µM peptide [%] | inhibition efficiency of the LFA-1/D1-D2-Fc interaction at 20 µM peptide [%] | Binder
1 | 40.8 | 47 | 53.2 | 65.1 | ITDGEATDSGNIDAAKDIIRYIIGI [CD11a(237–261) peptide]
2 | 12.2 | 20.3 | 36.5 | 51.4 | APLFYGEQRG [CD11a(456–465) peptide]

Source: PMC4102529, “FRET Based Quantification and Screening Technology Platform for the Interactions of Leukocyte Function-Associated Antigen-1 (LFA-1) with InterCellular Adhesion Molecule-1 (ICAM-1)” (PLoS ONE, 2014)
